The target of assay [1] is T1, biotinylated human VWF cysteine knot (CK) domain construct (human, UniProt P04275 2724-2813, biotinylated in vitro (BirA) on the biotinylation tag; one N-glycan).
T1 construct: Expressed in HEK293 EBNA cells; disulfide-linked homodimer; also called human VWF CK; human VWF CK domain; not shown: in vitro biotinylation tag, HRV-3C site and 3 VWF residues before the CK domain
Briefly: SPR, scFv captured via anti-SV5, CK domain injected, pH 5.5, apparent Kd.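 Note: scFvs from crude yeast supernatants captured on chip-bound anti-SV5 antibody, Kd computed as koff divided by kon, dimeric CK construct likely makes affinity appear higher.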

For assay [2], the target named is T2, biotinylated cynomolgus monkey VWF cysteine knot (CK) domain construct (cynomolgus monkey, biotinylated in vitro (BirA) on the biotinylation tag; one N-glycan).
T2 construct: Expressed in HEK293 EBNA cells; disulfide-linked homodimer; also called cyno VWF CK; cyno VWF CK domain; not shown: in vitro biotinylation tag, HRV-3C site and 3 VWF residues before the CK domain
T2 chain: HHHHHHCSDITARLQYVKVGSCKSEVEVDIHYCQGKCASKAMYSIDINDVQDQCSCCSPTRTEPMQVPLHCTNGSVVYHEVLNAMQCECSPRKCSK
Briefly: SPR, scFv captured via anti-SV5, CK domain injected, pH 7.4, apparent Kd.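 Note: scFvs from crude yeast supernatants printed on an amine-coupled anti-SV5 lawn, Kd computed as koff over kon, likely overestimating affinity because the CK construct is dimeric.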

The target of assay [3] is T1, biotinylated human VWF cysteine knot …. The description is as above.

B1: Lib1_P1_E9_scFv (scFv)
scFv: QVQLVQSGAEVKKPGASVKVSCKVSGYTFTSHIIHWVRQAPGKGLEWMGGMNPYSNKAIYAQKFQGRVTMTEDTSTDTAYMELSSLKSEDTAVYYCARDASDYGDYGYYYYYMDVWGKGTTVTVSSSGGSTITSYNVYYTKLSSSGTDIQMTQSPSSVSASVGDRVTITCRASQYIGNDLAWYQQKPGKAPKLLIYEASQRPSGVPSRFSGSGSGTDFTLTISSLQPEDFANYYCQQQYNYPLTFGGGTKVEIK
notes: VH-linker-VL; not shown: C-terminal 3xFLAG and SV5 tags
For the molecule B1, the Kd came out at 0.639 nM in assay [1], 0.536 nM in assay [2] and 0.915 nM in assay [3].

B2: Lib8_P4_D4_scFv (scFv)
scFv: QVQLVQSGAEVKKPGASVKVSCKVSGDTLSNYAIHWVRQAPGKGLEWMGGINPNAGTTIYAQKFQGRVTMTEDTSTDTAYMELSSLKSEDTAVYYCARDSSSWCPVGYYYYYMDVWGKGTTVTVSSSGGSTITSYNVYYTKLSSSGTDIQMTQSPSSVSASVGDRVTITCRASQSIGDFLAWYQQKPGKAPKLLIYDASHLQTGVPSRFSGSGSGTDFTLTISSLQPEDFANYYCQQTSTIPPTFGGGTKVEIK
notes: as for B1
Take B2: the figures for the Kd in assay [1], in assay [2] and in assay [3] were 0.397 nM, 0.206 nM and 0.917 nM, respectively.

B3: Lib8_P4_C11_scFv (scFv)
scFv: QVQLVQSGAEVKKPGASVKVSCKVSGDTLSNYAIHWVRQAPGKGLEWMGGINPNAGTTIYAQKFQGRVTMTEDTSTDTAYMELSSLKSEDTAVYYCARDSSSWCPVGYYYYYMDVWGKGTTVTVSSSGGSTITSYNVYYTKLSSSGTDIQMTQSPSSVSASVGDRVTITCRASQSIGDFLAWYQQKPGKAPKLLIYDASHLQTGVPSRFSGSGSGTDFTLTISSLQPEDFANYYCQQTSTIPPTFGGGTKVEIK
notes: as for B1
On to B3, for which the figures for the Kd in assay [1], in assay [2] and in assay [3] were 0.617 nM, 0.155 nM and 1.08 nM, respectively.

B4: Lib1_P1_A1_scFv (scFv)
scFv: QVQLVQSGAEVKKPGASVKVSCKVSGDTLSNYAIHWVRQAPGKGLEWMGGINPNAGTTIYAQKFQGRVTMTEDTSTDTAYMELSSLKSEDTAVYYCARDSSSWSQFGYYYYYMDVWGKGTTVTVSSSGGSTITSYNVYYTKLSSSGTDIQMTQSPSSVSASVGDRVTITCRASQSIGDFLAWYQQKPGKAPKLLIYDASHLQTGVPSRFSGSGSGTDFTLTISSLQPEDFANYYCQQTSTIPPTFGGGTKVEIK
notes: as for B1
Consider B4, for which the figures for the Kd in assay [1], in assay [2] and in assay [3] were 0.202 nM, 1.08 nM and 1.38 nM, respectively.

B5: 4142_Lib1_scFv (scFv)
scFv: QVQLVQSGAEVKKPGASVKVSCKVSGYPFTSSGIHWVRQAPGKGLEWMGGVIPLFGTANYAQKFQGRVTMTEDTSTDTAYMELSSLKSEDTAVYYCARIRVSSGWYRDYGMDVWGQGTTVTVSSSGGSTITSYNVYYTKLSSSGTDIQMTQSPSSVSASVGDRVTITCRASQDITNDLAWYQQKPGKAPKLLIYDASRLQSGVPSRFSGSGSGTDFTLTISSLQPEDFANYYCQQTFTTPLTFGGGTKVEIK
notes: as for B1
Consider B5, for which the Kd in assay [1] was 0.634 nM; in assay [2], 0.999 nM; in assay [3], 0.839 nM.

B6: 4029_Lib1_scFv (scFv)
scFv: QVQLVQSGAEVKKPGASVKVSCKVSGYPFTSSGIHWVRQAPGKGLEWMGGVIPLFGTANYAQKFQGRVTMTEDTSTDTAYMELSSLKSEDTAVYYCARIRVSSGWYRDYGMDVWGQGTTVTVSSSGGSTITSYNVYYTKLSSSGTDIQMTQSPSSVSASVGDRVTITCRASQSIGDFLAWYQQKPGKAPKLLIYDASHLQTGVPSRFSGSGSGTDFTLTISSLQPEDFANYYCQQTSTIPPTFGGGTKVEIK
notes: as for B1
In the case of B6, the Kd in assay [1] amounted to 2.58 nM; in assay [2], 4.67 nM; in assay [3], 4.27 nM.

B7: 3552_Lib8_scFv (scFv)
scFv: EVQLVESGGGLVQPGRSLRLSCAASEFTFGDYDMHWVRQAPGKGLEWVSAISSSGSNRDYADSVEGRFTISRDNAKNSLYLQMNSLRAEDTAVYYCARDAWFGDAFDIWGQGTMVTVSSSGGSTITSYNVYYTKLSSSGTDIQMTQSPSSLSASVGDRVTITCRASESVSSWLAWYQQKPGKAPKLLIYGASTLEGGVPSRFSGSGSGTDFTLTISSLQPEDVATYYCQQSYSFPDFGGGTKVEIK
notes: as for B1
As for B7, the results for the Kd in assay [1], in assay [2] and in assay [3] were 0.412 nM, 0.018 nM and 1.16 nM, respectively.

B8: Lib1_P1_C6_scFv (scFv)
scFv: QVQLVQSGAEVKKPGASVKVSCKVSGYTFASHYIHWVRQAPGKGLEWMGGMDPATGQTIYAQKFQGRVTMTEDTSTDTAYMELSSLKSEDTAVYYCAKGDRSSWYEVLSFQHWGQGTLVTVSSSGGSTITSYNVYYTKLSSSGTDIQMTQSPSSVSASVGDRVTITCRASQGISTDLAWYQQKPGKAPKLLIYDASILQRGVPSRFSGSGSGTDFTLTISSLQPEDFANYYCQQVRTYPFTFGGGTKVEIK
notes: as for B1
On to B8, for which the Kd in assay [1] worked out at 1.43 nM; in assay [2], 0.697 nM; in assay [3] it was 0.691 nM.

B9: 3964_Lib4_scFv (scFv)
scFv: QVQLQESGPGLVKPSQTLSLTCTVSGASISTHSWSWIRQPPGKGLEWIGYINPSGDIDYNPSLKSRVTMSVDTSKNQFSLKVNSVTAADTAVYYCARGRTGFDSSGFVVGAFDIWGQGTMVTVSSSGGSTITSYNVYYTKLSSSGTEIVMTQSPATLSLSPGERATLSCRASQNVNDNLAWYQQKPGQAPRLLIYDASTRPTGIPARFSGSGSGTDFTLTISSLEPEDFAVYYCQQYLTIPRTFGGGTKVEIK
notes: as for B1
Consider B9, for which the Kd in assay [1] was 0.737 nM; in assay [2] it was 0.689 nM; in assay [3] it was 1.13 nM.

B10: 4166_Lib4_scFv (scFv)
scFv: QVQLQESGPGLVKPSQTLSLTCTVSGESFSGHFWSWIRQPPGKGLEWIGYISQSGRTDYNPSLKSRVTMSVDTSKNQFSLKVNSVTAADTAVYYCARTLPRIQLWSPRGAFDIWGQGTMVTVSSSGGSTITSYNVYYTKLSSSGTEIVMTQSPATLSLSPGERATLSCRASQSLGRSLAWYQQKPGQAPRLLIYDASHRATGIPARFSGSGSGTDFTLTISSLEPEDFAVYYCQQYVSYPLTFGGGTKVEIK
notes: as for B1
B10: the Kd was found to be 0.567 nM in assay [1], 0.38 nM in assay [2] and 0.958 nM in assay [3].

B11: Lib4_P2_B4_scFv (scFv)
scFv: QVQLQESGPGLVKPSQTLSLTCTVSGASLGDQYWSWIRQPPGKGLEWIGYIHPSGDFDYNPSLKSRVTMSVDTSKNQFSLKVNSVTAADTAVYYCARHYSSSWYGTWYFDLWGRGTLVTVSSSGGSTITSYNVYYTKLSSSGTEIVMTQSPATLSLSPGERATLSCRASQNIGTNLAWYQQKPGQAPRLLIYDASVRAAGIPARFSGSGSGTDFTLTISSLEPEDFAVYYCQQSLTTPLTFGGGTKVEIK
notes: as for B1
Regarding B11, the Kd amounted to 0.225 nM in assay [1], 0.096 nM in assay [2] and 1.07 nM in assay [3].

B12: 2738_Lib1_scFv (scFv)
scFv: QVQLVQSGAEVKKPGASVKVSCKVSGYTLTDLPIHWVRQAPGKGLEWMGGINPFLGTTIYAQKFQGRVTMTEDTSTDTAYMELSSLKSEDTAVYYCARGVDMLATARDYYYMAIWGKGTTVTVSSSGGSTITSYNVYYTKLSSSGTDIQMTQSPSSVSASVGDRVTITCRASQSIGNDLAWYQQKPGKAPKLLIYGASMRATGVPSRFSGSGSGTDFTLTISSLQPEDFANYYCQQYASDPLTFGGGTKVEIK
notes: as for B1
For the molecule B12, the Kd is 0.519 nM in assay [1], 0.922 nM in assay [2] and 1.18 nM in assay [3].

Source of the values: patent US20250154283A1 (published 2025).
